Experimental data reported in paper PMC10397247.
Like-named read-outs stand apart in the source and are kept apart here.

What was measured:
Assay in all cases: two-hybrid library CCmax;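 also: natural log of median RNA to DNA barcode read ratio; higher means stronger binding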
4H2732-AA = target: T1, 4H2732-AA
T1 chain: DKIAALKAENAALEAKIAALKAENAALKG

4H2774-AA = target: T2, 4H2774-AA; conditions: mean of both orientations
T2 chain: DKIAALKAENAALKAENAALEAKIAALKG

4H2931-AA = target: T3, 4H2931-AA; conditions: mean of both orientations
T3 chain: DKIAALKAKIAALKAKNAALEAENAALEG

4H3001-AA = target: T4, 4H3001-AA; conditions: mean of both orientations
T4 chain: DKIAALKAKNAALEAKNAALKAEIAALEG

4H3015-AA = target: T5, 4H3015-AA; conditions: mean of both orientations
T5 chain: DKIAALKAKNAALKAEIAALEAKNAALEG

4H3073-AA = target: T6, 4H3073-AA; conditions: mean of both orientations
T6 chain: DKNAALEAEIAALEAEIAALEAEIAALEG

4H3438-AA = target: T7, 4H3438-AA; conditions: mean of both orientations
T7 chain: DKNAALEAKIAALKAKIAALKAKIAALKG

4H347-AA = target: T8, 4H347-AA; conditions: mean of both orientations
T8 chain: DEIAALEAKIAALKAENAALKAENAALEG

4H406-AA = target: T9, 4H406-AA; conditions: mean of both orientations
T9 chain: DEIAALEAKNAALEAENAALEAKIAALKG

4H452-AA = target: T10, 4H452-AA; conditions: mean of both orientations
T10 chain: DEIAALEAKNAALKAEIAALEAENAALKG

4H56-AA = target: T11, 4H56-AA
T11 chain: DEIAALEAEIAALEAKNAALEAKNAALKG

4H_APH = target: T12, 4H_APH
T12 chain: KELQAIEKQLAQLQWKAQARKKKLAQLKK

4H_BCR = target: T13, 4H_BCR; conditions: mean of both orientations
T13 chain: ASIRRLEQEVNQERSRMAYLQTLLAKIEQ

4H_GCN4 = target: 4H_GCN4
GCN2_T = target: GCN2_T
4H2466-AA = target: T14, 4H2466-AA
T14 chain: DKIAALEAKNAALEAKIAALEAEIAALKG

4H249-AA = target: T15, 4H249-AA; conditions: mean of both orientations
T15 chain: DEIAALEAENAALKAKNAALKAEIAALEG

4H2505-AA = target: T16, 4H2505-AA; conditions: mean of both orientations
T16 chain: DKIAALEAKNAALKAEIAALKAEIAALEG

4H2575-AA = target: T17, 4H2575-AA; conditions: mean of both orientations
T17 chain: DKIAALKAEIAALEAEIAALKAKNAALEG

4H2592-AA = target: T18, 4H2592-AA; conditions: mean of both orientations
T18 chain: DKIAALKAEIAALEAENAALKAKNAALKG

4H2617-AA = target: T19, 4H2617-AA; conditions: mean of both orientations
T19 chain: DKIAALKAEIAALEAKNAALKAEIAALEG

4H2642-AA = target: T20, 4H2642-AA; conditions: mean of both orientations
T20 chain: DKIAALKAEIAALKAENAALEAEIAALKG

4H2729-AA = target: T21, 4H2729-AA; conditions: mean of both orientations
T21 chain: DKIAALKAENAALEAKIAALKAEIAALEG

4H2754-AA = target: T22, 4H2754-AA
T22 chain: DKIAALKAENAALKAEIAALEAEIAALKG

4H2837-AA = target: T23, 4H2837-AA; conditions: mean of both orientations
T23 chain: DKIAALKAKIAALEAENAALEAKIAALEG

4H2883-AA = target: T24, 4H2883-AA; conditions: mean of both orientations
T24 chain: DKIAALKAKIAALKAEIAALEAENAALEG

4H2944-AA = target: T25, 4H2944-AA; conditions: mean of both orientations
T25 chain: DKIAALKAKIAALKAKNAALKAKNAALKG

4H2949-AA = target: T26, 4H2949-AA; conditions: mean of both orientations
T26 chain: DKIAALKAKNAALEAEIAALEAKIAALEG

4H3112-AA = target: T27, 4H3112-AA; conditions: mean of both orientations
T27 chain: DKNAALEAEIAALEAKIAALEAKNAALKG

4H317-AA = target: T28, 4H317-AA; conditions: mean of both orientations
T28 chain: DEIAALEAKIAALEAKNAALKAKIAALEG

4H3343-AA = target: T29, 4H3343-AA; conditions: mean of both orientations
T29 chain: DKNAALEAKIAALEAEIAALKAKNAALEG

4H335-AA = target: T30, 4H335-AA; conditions: mean of both orientations
T30 chain: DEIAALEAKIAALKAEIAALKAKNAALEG

4H342-AA = target: T31, 4H342-AA; conditions: mean of both orientations
T31 chain: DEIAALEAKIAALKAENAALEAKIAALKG

4H3427-AA = target: T32, 4H3427-AA; conditions: mean of both orientations
T32 chain: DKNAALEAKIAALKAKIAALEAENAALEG

4H3606-AA = target: T33, 4H3606-AA; conditions: mean of both orientations
T33 chain: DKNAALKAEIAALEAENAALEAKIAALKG

4H3627-AA = target: T34, 4H3627-AA
T34 chain: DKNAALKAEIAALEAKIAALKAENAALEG

4H3655-AA = target: T35, 4H3655-AA; conditions: mean of both orientations
T35 chain: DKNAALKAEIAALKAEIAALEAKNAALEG

4H3844-AA = target: T36, 4H3844-AA; conditions: mean of both orientations
T36 chain: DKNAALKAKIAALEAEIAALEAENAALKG

4H3921-AA = target: T37, 4H3921-AA
T37 chain: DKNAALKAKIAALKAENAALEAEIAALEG

4H429-AA = target: T38, 4H429-AA; conditions: mean of both orientations
T38 chain: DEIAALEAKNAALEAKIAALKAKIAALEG

4H454-AA = target: T39, 4H454-AA; conditions: mean of both orientations
T39 chain: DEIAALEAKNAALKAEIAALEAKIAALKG

4H48-AA = target: T40, 4H48-AA; conditions: mean of both orientations
T40 chain: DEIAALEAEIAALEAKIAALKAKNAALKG

4H566-AA = target: T41, 4H566-AA; conditions: mean of both orientations
T41 chain: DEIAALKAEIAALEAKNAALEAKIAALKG

4H605-AA = target: T42, 4H605-AA; conditions: mean of both orientations
T42 chain: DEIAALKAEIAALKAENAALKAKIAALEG

4H678-AA = target: T43, 4H678-AA; conditions: mean of both orientations
T43 chain: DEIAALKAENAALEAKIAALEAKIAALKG

4H717-AA = target: T44, 4H717-AA; conditions: mean of both orientations
T44 chain: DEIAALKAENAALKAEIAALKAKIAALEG

4H780-AA = target: T45, 4H780-AA; conditions: mean of both orientations
T45 chain: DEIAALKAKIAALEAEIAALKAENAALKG

4H794-AA = target: T46, 4H794-AA; conditions: mean of both orientations
T46 chain: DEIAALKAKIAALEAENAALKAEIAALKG

4H881-AA = target: T47, 4H881-AA; conditions: mean of both orientations
T47 chain: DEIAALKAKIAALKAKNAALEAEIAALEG

4H906-AA = target: T48, 4H906-AA; conditions: mean of both orientations
T48 chain: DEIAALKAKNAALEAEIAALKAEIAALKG

4H993-AA = target: T49, 4H993-AA; conditions: mean of both orientations
T49 chain: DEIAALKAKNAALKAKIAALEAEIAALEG

Sequence of 4H_GCN4 (chain, as listed by the source): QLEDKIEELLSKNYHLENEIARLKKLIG

B1: 4H2732-AA (peptide)
chain: DKIAALKAENAALEAKIAALKAENAALKG
interaction score (4H2732-AA): 0.324 | interaction score (4H2774-AA): -1.29 | interaction score (4H2931-AA): -1.81 | interaction score (4H3001-AA): -1.46 | interaction score (4H3015-AA): 1.14 | interaction score (4H3073-AA): 0.0758 | interaction score (4H3438-AA): -1.2 | interaction score (4H347-AA): -1.49 | interaction score (4H406-AA): -1.22 | interaction score (4H452-AA): 2.3 | interaction score (4H56-AA; mean of both orientations): -1.58 | interaction score (4H_APH; mean of both orientations): -1.5 | interaction score (4H_BCR): -2.17 | interaction score (4H_GCN4; mean of both orientations): -1.08 | interaction score (GCN2_T): -1.15

B2: 4H2466-AA (peptide)
chain: DKIAALEAKNAALEAKIAALEAEIAALKG
interaction score (4H2466-AA): 1.31 | interaction score (4H249-AA): -1.42 | interaction score (4H2505-AA): -0.434 | interaction score (4H2575-AA): -1.2 | interaction score (4H2592-AA): -1.71 | interaction score (4H2617-AA): -1.65 | interaction score (4H2642-AA): -0.362 | interaction score (4H2729-AA): 0.493 | interaction score (4H2732-AA; mean of both orientations): -1.42 | interaction score (4H2754-AA): -0.538 | interaction score (4H2774-AA): -1.69 | interaction score (4H2837-AA): -1.28 | interaction score (4H2883-AA): -1.56 | interaction score (4H2931-AA): -1.81 | interaction score (4H2944-AA): -1.57 | interaction score (4H2949-AA): -0.713 | interaction score (4H3001-AA): -1.55 | interaction score (4H3015-AA): -1.65 | interaction score (4H3073-AA): -1.43 | interaction score (4H3112-AA): -1.92 | interaction score (4H317-AA): -1.82 | interaction score (4H3343-AA): -1.23 | interaction score (4H335-AA): -1.59 | interaction score (4H342-AA): -0.478 | interaction score (4H3427-AA): -1.39 | interaction score (4H3438-AA): -0.928 | interaction score (4H347-AA): -2.11 | interaction score (4H3606-AA): -1.47 | interaction score (4H3627-AA): -1.86 | interaction score (4H3655-AA): -1.35 | interaction score (4H3844-AA): -1.82 | interaction score (4H3921-AA): -1.23 | interaction score (4H406-AA): -1.25 | interaction score (4H429-AA): -0.101 | interaction score (4H452-AA): -1.37 | interaction score (4H454-AA): 0.993 | interaction score (4H48-AA): -1.11 | interaction score (4H56-AA): -2.04 | interaction score (4H566-AA): -1.51 | interaction score (4H605-AA): -1.38 | interaction score (4H678-AA): -0.158 | interaction score (4H717-AA): -1.06 | interaction score (4H780-AA): -1.2 | interaction score (4H794-AA): -1.43 | interaction score (4H881-AA): -2.04 | interaction score (4H906-AA): -1.22 | interaction score (4H993-AA): 0.55 | interaction score (4H_APH): -0.895 | interaction score (4H_BCR): -2.46 | interaction score (4H_GCN4): -1.67 | interaction score (GCN2_T; mean of both orientations): -1
